Reference: patent publication US20240336680A1

Experiments:
[1] = molecular target: human CLDN18.2 (isoform 2 of claudin-18), full length, expressed on CHO cells (human) (UniProt P56856); assay: FACS, serial dilutions on CHO cells expressing human CLDN18.2
[2] = molecular target: human CLDN18.2 (isoform 2 of claudin-18), full length, expressed on CHO cells (human) (UniProt P56856); assay: FACS titration on CHO/CLDN18.2 cells, 0.00001 to 100 ug/mL

EC50 [1] | EC50 (read off the curve) [2] | Binder
1 µg/mL | – | Chimeric T252S4 H/L (antibody, human IgG1, V domains shown) VH: EVQLQQSGPELVKPGASMKISCKASGYSFTGYNMNWVKQTHGKNLEWIGLINPYNGGTRYNQKFKGKATLTVDKSSSTAYMELLSLTSEDSAVYFCARMGLGNAMDYWGQGTSVTVSS VL: DIVMTQSPSSLTVTAGEKVTMSCKSSQNLLNSGNQKNYLTWYQQKPGQPPKLLIYWASTMESGVPDRFTGSGSGTDFTLTISSVQAEDLAVYYCQNDYIYPLPFGAGTKLELK
– | 1 µg/mL | HuT252S4 H3/L1 (antibody, V domains shown) VH: EVQLVQSGAEVKKPGESLKISCKGSGYSFTGYNMNWVRQMPGKNLEWIGLINPYNGGTRYNQKFKGKATLSVDKSISTAYLQWSSLKASDTAMYFCARMGLGNAMDYWGQGTTVTVSS VL: DIVMTQSPDSLAVSLGERATINCKSSQNLLNSGNQKNYLTWYQQKPGQPPKLLIYWASTMESGVPDRFSGSGSGTDFTLTISSLQAEDVAVYYCQNDYIYPLPFGQGTKLEIK
– | 1 µg/mL | HuT252S4 H3/L2 (antibody, V domains shown) VH: EVQLVQSGAEVKKPGESLKISCKGSGYSFTGYNMNWVRQMPGKNLEWIGLINPYNGGTRYNQKFKGKATLSVDKSISTAYLQWSSLKASDTAMYFCARMGLGNAMDYWGQGTTVTVSS VL: DIVMTQSPDSLAVSLGERATINCKSSQNLLQSGNQKNYLTWYQQKPGQPPKLLIYWASTRESGVPDRFSGSGSGTDFTLTISSLQAEDVAVYYCQNDYIYPLPFGQGTKLEIK
